Reference: the nanobody polyreactivity screen of Harvey et al. (2022)

Assay: yeast display, Sf9 membrane polyspecificity reagent, FACS + sequencing; frameworks hold sequencing errors
Outline: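 Galactose-induced (36–48 hours) yeast carrying a synthetic nanobody display library were exposed to 10% biotinylated, detergent-solubilized Sf9 membrane reagent at 4 °C for 1 hour. FACS followed streptavidin microbead enrichment, using low and high (top ~1%) gates for expression (anti-HA) and reagent binding (streptavidin). Colony PCR, MiSeq 2 × 250 sequencing and CDR-length filtering followed. Labels for polyreactivity reflect the gate of origin.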

## QVQLVESGGGLVQAGGSLRLSCAASGSIFAVYAMGWYRQAPGKERELVAVITRSGGSTYYADSVKGRFTISRDNAKNTVYLQMNTLKPEDTADYYCAARTGYGYTRYEYWGQGTQVTVSS
  polyreactivity (PSR sort gate): high polyreactivity

## QVQLLESGGGLVQAGGSLRLSCASSGRTFVYYAMGRYRQAPGKERELVAAITFSGGSTYYADSVKGRFTISRDNAKNTVYLQMNSLKPEDTAVYYCAAQYRYSYPLGDYWGQGPQVTVSS
  polyreactivity (PSR sort gate): low polyreactivity

## QVQLVESGGGLVQAGGSLRLSCAASGSTFYIYAMGWYRQAPGKERELVARISGSGGSTYYADSVKGRFTISRDNAKNTVELQMNSLKPEDTAVYYCAADDIYKYYQYYAFPYYRYDYWGQGTQVTVSS
  polyreactivity (PSR sort gate): low polyreactivity

## QVQRVESGGGLVQAVGSLRLSCAPSGIIIPVKAMGWYRQAPGKERELVAAITTGGSTNYADSVKGRFTISRDNAKNNVYLQMNSLKPEDTAVYYCAADTARTRIFDYWGQGTQVTVSS
  polyreactivity (PSR sort gate): low polyreactivity

## QVQLVESGGGLVQEGGSLRLSCAATGLTFVYYEMGWYRQAPGKERELVADITYIGTSTYYADSVKGRFTISLDNAKNTVYLQMNSLKPEDTEVYYCAAPFPIRSGESWRTDLGYDYWGQGTQVTVSS
  polyreactivity (PSR sort gate): low polyreactivity

## QVQLVESGGCLVQAGGSLRLSCAASGRTSDGYAMGWYRQAPGKERELVAGITEGGGDTYYADSVKGRFTISRDNAKITDYLQMNSLKPEDTAVYYCNAGEGSRLPYDYWGQGTQVTVSS
  polyreactivity (PSR sort gate): low polyreactivity

## QVQLVESGGGLVQAGGSLRLSCAASGGTFDYYAMGWYRQAPGKERELVAAISTSGGRTYYADSVKGRFTISRDNAKNTVYLQMNSLTPEDTAVYYCAALSRRAKYDSFYYWGQGTQVTVSS
  polyreactivity (PSR sort gate): high polyreactivity

## QVQLVESGGGLVQAGGSLRLAVLPPDLPSTLNDMGWYRQAPGKERELVAAITRGGSTNYADSLKGRFTISRDNAKNTVYLQMNSLKPEDSAVYYCAAPYAGWGDGGDYWGQGTQVTVSS
  polyreactivity (PSR sort gate): low polyreactivity

## QVQLVESGGGVVQAGGSLRLICAASGLTFDKYTMGRYRQAPGKERELVARISTSGSRTYYADSVKGRFTISRDNAKNTVYLQMNSLIPEDTEVYYCNKDGWIRRRRGYDYWGQGTQVTVSS
  polyreactivity (PSR sort gate): high polyreactivity

## QVQLVESGGGLVQAGGSLRLSCAASGRIFSTYTMGWYRQAPGKERELVAAIRANGGSTYYADSVKGRFTISRDNAKNTVYLQMNSLKPEVTAVYYCNARRPIGTGYYWGQGTQVTVSS
  polyreactivity (PSR sort gate): high polyreactivity

## QVQLVESGGGLVQAGGSLRLSCAASGSIFILYMGWYRQAPGKERELVATISSGGSTNYADSVKGRFTISRDNAKNTVYLQMNSLKPEDTAVYYCNARGSERVDTYSLYDYWGQGTQVTVSS
  polyreactivity (PSR sort gate): low polyreactivity

## QVQLVESGGGLVQAGGSLRLSCAASGNTFATYALGWYRQAPGKERELVAAITWSGGSTYYADSVKGRFTISRDNAKNTVYLQMNSLKPEDTAVYYCAADYLYYAIPAYYWDTGYDYWGQGTQVTVSS
  polyreactivity (PSR sort gate): low polyreactivity

## QVQLVESGGGLVQAGGSLRLICAASGRTFWDYAMGWYRQAPGKERELVAAITASGTRTYYADSVKGRFTISRDNAKNTVFLQMNSLKPEDTAVYYCAAARIWWAHAYPTYVANDYWGQGTQVTVSS
  polyreactivity (PSR sort gate): high polyreactivity

## QVQLVESGGGLVQAGGSLRLSCAASGSIFDDYAMGWYRQAPGKERELVAAITSGGSTYYADSVKGRFTISRDNAKNTVYLQMTSLKPEDTAVYYRATRYHWSSTFAPVGAGRGGDSWGQGTQVTVSS
  polyreactivity (PSR sort gate): low polyreactivity

## QVQLVESGGGLVQAGGCLRLSCAASGRTLGAYAMGWYRQAPGKEREFVASITYGGRTCYADSVKGRFTISRDNAMNTVFLQMNSLKPEDSAVYYCASKLPYRWYDYWGQGTQVTVSS
  polyreactivity (PSR sort gate): high polyreactivity

## QVQLVESGGGLVQAGGSLRLSGAASGFIFVRYAMGWYRQAPGKERELVAAITRRGGSTHYADSVKGRFTISRDNAKNTVYLQMNSLTPEDTAVYYCAAGRQYYYLDRFPRVQGDYWGQGTQVTVSS
  polyreactivity (PSR sort gate): high polyreactivity

## QVQLVESGGGLVQAGGSLGLSCAASGSTFGFYTMGWYRQAPGKERELVATISYSGGDTYYEDSVKGRFTISRDNAKNTVYFQMNSLKPEYTAVYYCAADLGDYVTTYSWLDSWGQGTQVTVSS
  polyreactivity (PSR sort gate): low polyreactivity

## QVQLVESGGGLVQAGGSLRLSCAASGSTFYYYAMGWYRQAPGKERELVAAITSGGSTDYADSVKGRFTISRDNAKNTVYLQMKSLKPEDTAVYYCAKDSQSYTREAYYYWGQGTQVTVSS
  polyreactivity (PSR sort gate): low polyreactivity

## QVQLVESGGGLVQAGGSLRLSCAASGRTFYANAMGWYRQAPGKERELVAGISYSGGNTYYADSVKGRFTISRDNAKNTVYLQMNRLKPEYTAVYYCAAATDWEYWTYEYWRQGTQVTVSS
  polyreactivity (PSR sort gate): low polyreactivity

## QVQLEESGGGLVQAGGSLRLSCAASGFIYAHYAMGWYRQAPGKERELVAAISSRGGSTYYADSVKGRFTISRDYAKNPVYLQINSLKPEDTAVYYCAKARHRPARGYEYWGLGTQVTVSS
  polyreactivity (PSR sort gate): high polyreactivity

## QVQLVESGGGLVQAGGSLRLSCAASGFTININDMRGYRQAPGIDTDLVAALSWNVGNRYYADSVKGRFTISRDNAKNTVYLQMKSLKPEDTAVYYCAADRYIRWVEFDYWGQGTQVTVSS
  polyreactivity (PSR sort gate): low polyreactivity

## QVQLVETGGGLVQAGGSLRLSCAASGITFFEYAMGWYRQAPGKERELVAGIRYSGSTTYYSDSVKGRFTISRDNAKNTVYLQMNSLKPEDSAVYYCNVDYYSGLYDYYSWGQGTQVTVSS
  polyreactivity (PSR sort gate): low polyreactivity

## QVQLVESGGGLVQAGGSLRLSCAASGIIFASYAMGWYRQAPGKERELVAAITWDGDSTYYADSVKGRFSISRDNAKNTVYLQRNSLKPEDTAVYYCAADGVYVGFYGYDYDYWGQGTQVTVSS
  polyreactivity (PSR sort gate): low polyreactivity

## QVQLVESGGGLVQAGGSLRLSCAASGYTIWHYAMGWYRQAPGKEREFVATISSGGSTYYADSVKGRFTISRDNAKNTVYLQMNSLKPEDTAVYYCAVDIWGGEGYDSWGQGTQVTVSS
  polyreactivity (PSR sort gate): low polyreactivity

## QVQLVESGGGLDQEGGSLRLSCAASGRIFARNAMGWYRQAPGKERELVAAIRNSDGSTYYADSVKGRFTISRDNAKNTVYLQMNSLKPEDTAVYYCAARSGSYRKYGYWGQGTQVTLSS
  polyreactivity (PSR sort gate): high polyreactivity

## QVQLVESGGGLVQAGGSLRLRCAASGITFSWYDMGWYRQAPGKERELVAAISWSGGRTYYADSVKGRFTISRDNAKNTVYLQMNSLKPEDTAVYYCNAVGVGYVGYLYGYLGQGTQVTVSS
  polyreactivity (PSR sort gate): high polyreactivity

## QVQLVESGGALVQAGGSLRLSCAASGSIFVSNAMGWYRQAPGKERELVAAISQSGGSTYYADSVKGRFTISRDNAKNTVYLQMNSLKPEDTAVYYCATPIRSGFRIYDYWGQGTQVNVSS
  polyreactivity (PSR sort gate): low polyreactivity

## QVQLVESGGGLVQAGGSLRLSCAASGFTLVLNAMGWYRQAPGKEREVVAAIRRSAGSTYYADSVKGRFTISRDNAKNTVYLQMNSLKPEDTAVYYCAAGFLWAKYAYGHWGQGTQVTVSS
  polyreactivity (PSR sort gate): low polyreactivity

## QVQLVESGGGLVQAGGSLRLSCAASGRIFFLNAMGWYRQAPGKERELVATISWTGGSTYYADSVKGRFTISRDNAKNTVDLQMTSLKPEDTAGYYCAKDGTNWGHAFDSWGQGTEVTVSS
  polyreactivity (PSR sort gate): low polyreactivity

## QVQLVESGGGLVQAGGSLRLSCASSGSTFEANAMGWYRQAPGKERELVAVITWTGGSTYYADSVKGRFTISRDNAKNTLYLQMNSLKPEDTAVYYCDADGVVPGRFFWPAHEYEYWGQGTQGTVSS
  polyreactivity (PSR sort gate): low polyreactivity

## QVQLVESGGGLVQAGGSLRLSCAASGFTFTPYAMGWYRQAPGKERELVATISWSGGSTYADSVKGRFTISRDNAKNTVYLQMNSLKPEDTAVYYCAADVYGVHAPQSDYWTKYDYWGQGTQVTVSS
  polyreactivity (PSR sort gate): low polyreactivity

## QVQLVESGGGVVQAGGSLRLSCAASGSTFTVNGMGWYRQAPGKERELVAAIVGGDGSTYYADSVKGRFTISRDNAMNTVYLQMNSLKPEDTAVYYCAADPPGFTQYGYWGQGTQVTVSS
  polyreactivity (PSR sort gate): low polyreactivity

## QVQLVESGGGLVQAGGSLRLSCAASGSTFWRNALGWYRQAPGKERELVAAITDSGDSTYYADSVKGRFTISRDTAKNTVYLQMHSLKPEDTAVYYCAVDKLSLYGWDEYWGQGTQVTVSS
  polyreactivity (PSR sort gate): low polyreactivity

## QVQLVESGGGLVQAGGSLRLSCAASGGSSPNYAMGWYRQAPGKEREFVAGISRSGGSTYYADSVKGRFTISRDNAKNTVYLQMNSLKPEDTAVYVCAAARSRPYDYWGQGTQVTVSS
  polyreactivity (PSR sort gate): high polyreactivity

## QVQIVESGGGLVQAGGSLRLSCAASGRTIYYYTMGWYIQAPGKERELVAAITHGGSTYYADSVKGRFTISRDNAKNTVYLQMNSLNPEDTAVYYCNAVYDYPYEYWGQGTQVTVSS
  polyreactivity (PSR sort gate): high polyreactivity

## QVQLVDSGGGLVQAGGSLRLSCAASGRTFPFYAKGLSRQATGKERELVAVITWRGSNTFADSVKGRFTISRDNAKNTVFLQMNSLKPEDTAVYYCAADAWRSYGYRAYDYWGQGTQVTVSS
  polyreactivity (PSR sort gate): high polyreactivity

## QVQLVESGGGLVQAGGSLRLTCAASGSTFYLNAMGWYRQATGKERELVAAITVSGGSTYYADSVKGRFTISRDNAKNTVYLQMNSLKPVDTAVYYCARELLSPTYQRWYYYWGQGTQVTVSS
  polyreactivity (PSR sort gate): low polyreactivity

## HVQLVESGGGLVQAGGSLRFSCAASVSTLRWNAMGWYRQAPAKEREMVAAITYSGGSTYYADSVKGLFTISRDNAKNTVYLQMNSLKPEDTAVYYCAADSYRYRPGYGPVLYDYWGQGTQVTVSS
  polyreactivity (PSR sort gate): high polyreactivity

## QVQLVESGGGLDQAGGSLRLSCAASGFTFRRYAMGWYSQAPGKEREFVAAITTRGSNTYYADSVKGRFTISRDNAKNTVYLQMNSLKPEDTAVYYCAASYYPPGHYDYWGQGTQVTVSS
  polyreactivity (PSR sort gate): high polyreactivity

## QVQLVESGGGLVQAGGSLRLSCAASGSTFAFYAMGWYRPAPGKERELVAAITWDGGTTYYADSVKGRFTIARDNAKNTVYLQMNSLKPEDSAVYYCAADYASVSIYDNVPSAPGYDYWGQGTQVTVSS
  polyreactivity (PSR sort gate): low polyreactivity

## QVQLVESGGGLVQAGGSLRLSCAASGRIFRGYAMGWYRQAPGKEREFVAAITKNGGSTYYADSVKGRFTISRDNAKNTVYLQMNSLKPEDTAVYYCAAGGPSTLDDYWGQGTQVTVSS
  polyreactivity (PSR sort gate): low polyreactivity

## QVQLVESGGGLVQAGGSLRLSCAASGSIFRRYAMGWYRQAPGKERELVAAISSNGGSTYYADSVKGRFTISRDNAKNTVYLQMNSLKPEDTAVYYCNAPPLYRDEYWGQGTQVTVSS
  polyreactivity (PSR sort gate): high polyreactivity

## QVQLVESGGGLVQAGGSLRLSCAASGSTFRRYAMGGYRQAPGKERELVAAISRSGGTTYYADSVKGRFTISRDNAKNTVYLQMNSLKPEDTAVYYCNARYPVVRYDYWGQGTQVTVSS
  polyreactivity (PSR sort gate): high polyreactivity
